Test results reported in IntAct's records for PubMed 30126976.

B1: A-kinase anchor protein 1, mitochondrial (Homo sapiens), Q92667 (parent)
chain: MAIQFRSLFPLALPGMLALLGWWWFFSRKKGHVSSHDEQQVEAGAVQLRADPAIKEPLPVEDVCPKVVSTPPSVTEPPEKELSTVSKLPAEPPALLQTHPPCRRSESSGILPNTTDMRLRPGTRRDDSTKLELALTGGEAKSIPLECPLSSPKGVLFSSKSAEVCKQDSPFSRVPRKVQPGYPVVPAEKRSSGERARETGGAEGTGDAVLGEKVLEEALLSREHVLELENSKGPSLASLEGEEDKGKSSSSQVVGPVQEEEYVAEKLPSRFIESAHTELAKDDAAPAPPVADAKAQDRGVEGELGNEESLDRNEEGLDRNEEGLDRNEESLDRNEEGLDRNEEIKRAAFQIISQVISEATEQVLATTVGKVAGRVCQASQLQGQKEESCVPVHQKTVLGPDTAEPATAEAAVAPPDAGLPLPGLPAEGSPPPKTYVSCLKSLLSSPTKDSKPNISAHHISLASCLALTTPSEELPDRAGILVEDATCVTCMSDSSQSVPLVASPGHCSDSFSTSGLEDSCTETSSSPRDKAITPPLPESTVPFSNGVLKGELSDLGAEDGWTMDAEADHSGGSDRNSMDSVDSCCSLKKTESFQNAQAGSNPKKVDLIIWEIEVPKHLVGRLIGKQGRYVSFLKQTSGAKIYISTLPYTQSVQICHIEGSQHHVDKALNLIGKKFKELNLTNIYAPPLPSLALPSLPMTSWLMLPDGITVEVIVVNQVNAGHLFVQQHTHPTFHALRSLDQQMYLCYSQPGIPTLPTPVEITVICAAPGADGAWWRAQVVASYEETNEVEIRYVDYGGYKRVKVDVLRQIRSDFVTLPFQGAEVLLDSVMPLSDDDQFSPEADAAMSEMTGNTALLAQVTSYSPTGLPLIQLWSVVGDEVVLINRSLVERGLAQWVDSYYTSL
B2: Cysteinyl leukotriene receptor 2 (Homo sapiens), Q9NS75 (parent)
chain: MERKFMSLQPSISVSEMEPNGTFSNNNSRNCTIENFKREFFPIVYLIIFFWGVLGNGLSIYVFLQPYKKSTSVNVFMLNLAISDLLFISTLPFRADYYLRGSNWIFGDLACRIMSYSLYVNMYSSIYFLTVLSVVRFLAMVHPFRLLHVTSIRSAWILCGIIWILIMASSIMLLDSGSEQNGSVTSCLELNLYKIAKLQTMNYIALVVGCLLPFFTLSICYLLIIRVLLKVEVPESGLRVSHRKALTTIIITLIIFFLCFLPYHTLRTVHLTTWKVGLCKDRLHKALVITLALAAANACFNPLLYYFAGENFKDRLKSALRKGHPQKAKTKCVFPVSVWLRKETRV
B3: Ecotropic viral integration site 5 protein homolog (Homo sapiens), O60447 (parent)
chain: MVTNKMTAAFRNPSGKQVATDKVAEKLSSTLSWVKNTVSHTVSQMASQVASPSTSLHTTSSSTTLSTPALSPSSPSQLSPDDLELLAKLEEQNRLLETDSKSLRSVNGSRRNSGSSLVSSSSASSNLSHLEEDSWILWGRIVNEWEDVRKKKEKQVKELVHKGIPHHFRAIVWQLLCSAQSMPIKDQYSELLKMTSPCEKLIRRDIARTYPEHNFFKEKDSLGQEVLFNVMKAYSLVDREVGYCQGSAFIVGLLLMQMPEEEAFCVFVKLMQDYRLRELFKPSMAELGLCMYQFECMIQEHLPELFVHFQSQSFHTSMYASSWFLTIFLTTFPLPIATRIFDIFMSEGLEIVFRVGLALLQMNQAELMQLDMEGMLQHFQKVIPHQFDGVPDKLIQAAYQVKYNSKKMKKLEKEYTTIKTKEMEEQVEIKRLRTENRLLKQRIETLEKHKCSSNYNEDFVLQLEKELVQARLSEAESQCALKEMQDKVLDIEKRNNSLPDENNIARLQEELIAVKLREAEAIMGLKELRQQVKDLEEHWQRHLARTTGRWKDPPKKNAMNELQDELMTIRLREAETQAEIREIKQRMMEMETQNQINSNHLRRAEQEVISLQEKVQYLSAQNKGLLTQLSEAKRKQAEIECKNKEEVMAVRLREADSIAAVAELRQHIAELEIQKEEGKLQGQLNKSDSNQYIGELKDQIAELNHELRCLKGQRGFSGQPPFDGIHIVNHLIGDDESFHSSDEDFIDNSLQETGVGFPLHGKSGSMSLDPAVADGSESETEDSVLETRESNQVVQKERPPRRRESYSTTV

Variants of: B1
Settings: with scrib_human SCRIB
Target sequence in this assay (Q14160 whole entry): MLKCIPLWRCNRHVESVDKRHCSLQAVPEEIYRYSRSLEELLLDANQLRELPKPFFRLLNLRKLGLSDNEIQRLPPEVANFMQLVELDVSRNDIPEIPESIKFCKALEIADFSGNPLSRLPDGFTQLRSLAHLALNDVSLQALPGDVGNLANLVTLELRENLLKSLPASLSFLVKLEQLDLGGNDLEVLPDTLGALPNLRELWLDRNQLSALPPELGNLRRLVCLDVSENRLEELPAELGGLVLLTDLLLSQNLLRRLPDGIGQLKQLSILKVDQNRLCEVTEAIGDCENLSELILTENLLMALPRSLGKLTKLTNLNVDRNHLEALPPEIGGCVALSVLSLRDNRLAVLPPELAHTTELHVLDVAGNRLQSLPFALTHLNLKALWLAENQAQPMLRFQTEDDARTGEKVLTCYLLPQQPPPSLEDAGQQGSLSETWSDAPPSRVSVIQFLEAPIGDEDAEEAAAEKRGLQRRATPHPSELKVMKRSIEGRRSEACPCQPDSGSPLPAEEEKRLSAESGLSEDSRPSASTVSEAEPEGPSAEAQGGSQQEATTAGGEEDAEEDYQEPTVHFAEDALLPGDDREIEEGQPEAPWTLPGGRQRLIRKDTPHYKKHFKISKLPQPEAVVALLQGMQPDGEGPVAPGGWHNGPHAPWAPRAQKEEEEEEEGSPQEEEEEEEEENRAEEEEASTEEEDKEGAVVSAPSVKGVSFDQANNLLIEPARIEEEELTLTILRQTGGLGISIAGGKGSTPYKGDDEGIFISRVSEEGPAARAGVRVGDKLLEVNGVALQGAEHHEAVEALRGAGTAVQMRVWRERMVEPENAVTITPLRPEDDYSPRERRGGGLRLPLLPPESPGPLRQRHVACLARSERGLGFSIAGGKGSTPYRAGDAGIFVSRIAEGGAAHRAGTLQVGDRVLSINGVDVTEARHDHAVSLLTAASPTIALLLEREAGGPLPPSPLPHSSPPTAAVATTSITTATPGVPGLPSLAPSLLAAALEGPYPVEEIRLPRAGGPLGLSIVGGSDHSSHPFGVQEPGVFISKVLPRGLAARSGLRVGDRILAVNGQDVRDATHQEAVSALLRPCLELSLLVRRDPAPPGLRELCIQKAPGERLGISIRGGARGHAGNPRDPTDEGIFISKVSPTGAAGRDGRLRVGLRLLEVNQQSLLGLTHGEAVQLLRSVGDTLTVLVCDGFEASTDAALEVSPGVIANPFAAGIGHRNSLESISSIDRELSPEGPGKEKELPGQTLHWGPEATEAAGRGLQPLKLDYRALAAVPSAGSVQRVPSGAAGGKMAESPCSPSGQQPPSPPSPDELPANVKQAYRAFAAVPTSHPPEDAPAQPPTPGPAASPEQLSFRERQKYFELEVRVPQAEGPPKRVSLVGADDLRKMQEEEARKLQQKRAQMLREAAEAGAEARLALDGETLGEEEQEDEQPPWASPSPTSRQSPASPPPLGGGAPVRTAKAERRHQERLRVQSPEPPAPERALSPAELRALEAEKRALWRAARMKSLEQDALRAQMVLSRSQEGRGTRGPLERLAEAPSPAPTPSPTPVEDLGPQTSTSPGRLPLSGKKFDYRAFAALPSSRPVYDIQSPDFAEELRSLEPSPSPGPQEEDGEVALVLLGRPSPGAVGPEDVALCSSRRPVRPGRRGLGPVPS

Variant | effect of a mutation on the interaction
S902E | increasing interaction strength

Variants of: B2
Settings: with scrib_human SCRIB
Target sequence in this assay (Q14160 whole entry): as above

Variant | effect of a mutation on the interaction
MERKFMSLQPSISVSEMEPNGTFSNNNSRNCTIENFKREFFPIVYLIIFFWGVLGNGLSIYVFLQPYKKSTSVNVFMLNLAISDLLFISTLPFRADYYLRGSNWIFGDLACRIMSYSLYVNMYSSIYFLTVLSVVRFLAMVHPFRLLHVTSIRSAWILCGIIWILIMASSIMLLDSGSEQNGSVTSCLELNLYKIAKLQTMNYIALVVGCLLPFFTLSICYLLIIRVLLKVEVPESGLRVSHRKALTTIIITLIIFFLCFLPYHTLRTVHLTTWKVGLCKDRLHKALVITLALAAANACFNPLLYYFAGENFKDRLKSALRKGHPQKAKTKCVFPVSVWLRKEERV [T344E] | disrupting interaction strength

Variants of: B2
Settings: with dlg1_human DLG1, Q12959
Target sequence in this assay (Q12959 whole entry, looked up): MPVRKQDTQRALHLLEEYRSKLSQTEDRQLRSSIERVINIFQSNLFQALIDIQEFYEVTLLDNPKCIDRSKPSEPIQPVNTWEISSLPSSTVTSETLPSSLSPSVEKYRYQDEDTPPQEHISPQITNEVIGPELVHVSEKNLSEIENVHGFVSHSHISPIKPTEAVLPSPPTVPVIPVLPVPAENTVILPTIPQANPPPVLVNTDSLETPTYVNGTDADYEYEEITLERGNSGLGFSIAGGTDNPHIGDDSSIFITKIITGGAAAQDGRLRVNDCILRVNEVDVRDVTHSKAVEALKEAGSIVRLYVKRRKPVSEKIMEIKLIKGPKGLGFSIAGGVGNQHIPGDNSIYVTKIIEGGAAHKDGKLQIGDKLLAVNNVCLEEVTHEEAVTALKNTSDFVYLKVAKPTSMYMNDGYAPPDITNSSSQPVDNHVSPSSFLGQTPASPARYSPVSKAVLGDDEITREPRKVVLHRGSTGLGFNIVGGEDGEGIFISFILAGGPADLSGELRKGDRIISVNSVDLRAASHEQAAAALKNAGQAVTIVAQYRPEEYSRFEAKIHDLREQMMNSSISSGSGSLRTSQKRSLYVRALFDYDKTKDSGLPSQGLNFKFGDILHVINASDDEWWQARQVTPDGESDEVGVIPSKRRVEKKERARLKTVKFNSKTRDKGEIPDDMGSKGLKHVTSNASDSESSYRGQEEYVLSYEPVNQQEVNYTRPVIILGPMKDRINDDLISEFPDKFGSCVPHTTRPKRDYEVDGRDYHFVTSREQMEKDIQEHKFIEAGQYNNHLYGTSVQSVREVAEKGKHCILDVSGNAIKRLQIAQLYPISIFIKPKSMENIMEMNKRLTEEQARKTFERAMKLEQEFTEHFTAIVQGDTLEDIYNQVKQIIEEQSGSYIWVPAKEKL

Variant | effect of a mutation on the interaction
MERKFMSLQPSISVSEMEPNGTFSNNNSRNCTIENFKREFFPIVYLIIFFWGVLGNGLSIYVFLQPYKKSTSVNVFMLNLAISDLLFISTLPFRADYYLRGSNWIFGDLACRIMSYSLYVNMYSSIYFLTVLSVVRFLAMVHPFRLLHVTSIRSAWILCGIIWILIMASSIMLLDSGSEQNGSVTSCLELNLYKIAKLQTMNYIALVVGCLLPFFTLSICYLLIIRVLLKVEVPESGLRVSHRKALTTIIITLIIFFLCFLPYHTLRTVHLTTWKVGLCKDRLHKALVITLALAAANACFNPLLYYFAGENFKDRLKSALRKGHPQKAKTKCVFPVSVWLRKEERV [T344E] | disrupting interaction strength

Variants of: B3
Settings: with dlg1_human DLG1, Q12959
Target sequence in this assay (Q12959 whole entry, looked up): as the sequence (Q12959 whole entry, looked up) above

Variant | effect of a mutation on the interaction
S805E | decreasing interaction strength
